Data from patent US5455329A, “DNA sequences coding for PTH variants, PTH variants, expression vector, bacterial host, use and therapeutic composition” (Gesellschaft fur Biotechnologische Forschung mbH (GBF), priority 1989, dated 1995).
Numbering of substitutions follows the chain as printed. Names and notes keep the numbering of the source.

Tests used:
[1] = test system: adenylate cyclase in isolated membranes of porcine adrenal cortices; assay: Stimulation of adenylate cyclase in isolated membranes, in vitro test according to Mohr and Hesch; type: biochemical; settings: for Adenylate cyclase (%) relative activity: relative to recombinant hPTH (=100), stimulation beyond the base level; for Effect on adenylate cyclase stimulation (in words, group classification): qualitative, versus wild type PTH
Method: The PTH variants so obtained were tested for their ability to stimulate adenylate cyclase in isolated membranes of porcine adrenal cortices in an in vitro test according to Mohr and Hesch (Biochem. J., 188 (1980) 649-656) .

[2] = test system: embryonal chicken chondrocytes; assay: Increase of DNA synthesis of embryonal chicken chondrocytes; type: cell-based; settings: for DNA synthesis (%) relative activity: relative to recombinant hPTH (=100), stimulation beyond the base level, chondrocytes; for Effect on stimulation of DNA synthesis (in words, group classification): qualitative, versus wild type PTH
Method: They were also tested for their ability, according to DE-A-37 25 319.0 and DE-A-37 25 320.4, to increase the DNA synthesis of embryonal chicken chondrocytes.

rec-hPTH: recombinant human parathyroid hormone wild type, lengthened N-terminally by one proline residue; reference = 100 % [reference compound]
Adenylate cyclase (%) relative activity [1]: 100% | DNA synthesis (%) relative activity [2]: 100%

B1: Q29N: hPTH variant Gln(29) -> Asn(29), lengthened N-terminally by one proline (protein, UniProt P01270 32-115, looked up, variant Q29N)
Parathyroid hormone: SVSEIQLMHNLGKHLNSMERVEWLRKKLNDVHNFVALGAPLAPRDAGSQRPRKKEDNVLVESHEKSLGEADKADVNVLTKAKSQ
modifications: Parathyroid hormone N-terminal proline extension
notes: hPTH variant Gln(29) -> Asn(29), lengthened N-terminally by one proline
Effect on adenylate cyclase stimulation (in words, group classification) [1]: maintain the stimulation | Adenylate cyclase (%) relative activity [1]: 99% | Effect on stimulation of DNA synthesis (in words, group classification) [2]: maintain the stimulation | DNA synthesis (%) relative activity [2]: 95%

B2: R20E: hPTH variant Arg(20) -> Glu(20), lengthened N-terminally by one proline (protein, UniProt P01270 32-115, looked up, variant R20E)
Parathyroid hormone: B1 Parathyroid hormone with R20E, N29Q
modifications: Parathyroid hormone N-terminal proline extension
notes: hPTH variant Arg(20) -> Glu(20), lengthened N-terminally by one proline
Effect on adenylate cyclase stimulation (in words, group classification) [1]: significant reduction in adenylate cyclase stimulation | Adenylate cyclase (%) relative activity [1]: 0% | Effect on stimulation of DNA synthesis (in words, group classification) [2]: unaffected DNA synthesis | DNA synthesis (%) relative activity [2]: 0%

B3: H32R: hPTH variant His(32) -> Arg(32), lengthened N-terminally by one proline (protein, UniProt P01270 32-115, looked up, variant H32R)
Parathyroid hormone: B1 Parathyroid hormone with N29Q, H32R
modifications: Parathyroid hormone N-terminal proline extension
notes: hPTH variant His(32) -> Arg(32), lengthened N-terminally by one proline
Effect on adenylate cyclase stimulation (in words, group classification) [1]: substantial retention of the effect on adenylate cyclase | Adenylate cyclase (%) relative activity [1]: 87% | Effect on stimulation of DNA synthesis (in words, group classification) [2]: significant reduction in the stimulation of DNA synthesis | DNA synthesis (%) relative activity [2]: 36%

B4: K27L: hPTH variant Lys(27) -> Leu(27), lengthened N-terminally by one proline (protein, UniProt P01270 32-115, looked up, variant K27L)
Parathyroid hormone: B1 Parathyroid hormone with K27L, N29Q
modifications: Parathyroid hormone N-terminal proline extension
notes: hPTH variant Lys(27) -> Leu(27), lengthened N-terminally by one proline
Effect on adenylate cyclase stimulation (in words, group classification) [1]: significant reduction in adenylate cyclase stimulation | Adenylate cyclase (%) relative activity [1]: 35% | Effect on stimulation of DNA synthesis (in words, group classification) [2]: increase in DNA synthesis | DNA synthesis (%) relative activity [2]: 70%

B5: K27R: hPTH variant Lys(27) -> Arg(27), lengthened N-terminally by one proline (protein, UniProt P01270 32-115, looked up, variant K27R)
Parathyroid hormone: B1 Parathyroid hormone with K27R, N29Q
modifications: Parathyroid hormone N-terminal proline extension
notes: hPTH variant Lys(27) -> Arg(27), lengthened N-terminally by one proline
Effect on adenylate cyclase stimulation (in words, group classification) [1]: maintain the stimulation | Adenylate cyclase (%) relative activity [1]: 90% | Effect on stimulation of DNA synthesis (in words, group classification) [2]: maintain the stimulation | DNA synthesis (%) relative activity [2]: 81%

B6: K13P: hPTH variant Lys(13) -> Pro(13), lengthened N-terminally by one proline (protein, UniProt P01270 32-115, looked up, variant K13P)
Parathyroid hormone: B1 Parathyroid hormone with K13P, N29Q
modifications: Parathyroid hormone N-terminal proline extension
notes: hPTH variant Lys(13) -> Pro(13), lengthened N-terminally by one proline
Effect on adenylate cyclase stimulation (in words, group classification) [1]: significant reduction in adenylate cyclase stimulation | Adenylate cyclase (%) relative activity [1]: 6% | Effect on stimulation of DNA synthesis (in words, group classification) [2]: increase in DNA synthesis | DNA synthesis (%) relative activity [2]: 88%

B7: H32L: hPTH variant His(32) -> Leu(32), lengthened N-terminally by one proline (protein, UniProt P01270 32-115, looked up, variant H32L)
Parathyroid hormone: B1 Parathyroid hormone with N29Q, H32L
modifications: Parathyroid hormone N-terminal proline extension
notes: hPTH variant His(32) -> Leu(32), lengthened N-terminally by one proline
Effect on adenylate cyclase stimulation (in words, group classification) [1]: substantial retention of the effect on adenylate cyclase | Adenylate cyclase (%) relative activity [1]: 93% | Effect on stimulation of DNA synthesis (in words, group classification) [2]: significant reduction in the stimulation of DNA synthesis | DNA synthesis (%) relative activity [2]: 11%

B8: Q29A: hPTH variant Gln(29) -> Ala(29), lengthened N-terminally by one proline (protein, UniProt P01270 32-115, looked up, variant Q29A)
Parathyroid hormone: B1 Parathyroid hormone with N29A
modifications: Parathyroid hormone N-terminal proline extension
notes: hPTH variant Gln(29) -> Ala(29), lengthened N-terminally by one proline
Effect on adenylate cyclase stimulation (in words, group classification) [1]: substantial retention of the effect on adenylate cyclase | Adenylate cyclase (%) relative activity [1]: 104% | Effect on stimulation of DNA synthesis (in words, group classification) [2]: significant reduction in the stimulation of DNA synthesis | DNA synthesis (%) relative activity [2]: 8%

B9: H32K: hPTH variant His(32) -> Lys(32), lengthened N-terminally by one proline (protein, UniProt P01270 32-115, looked up, variant H32K)
Parathyroid hormone: B1 Parathyroid hormone with N29Q, H32K
modifications: Parathyroid hormone N-terminal proline extension
notes: hPTH variant His(32) -> Lys(32), lengthened N-terminally by one proline
Effect on adenylate cyclase stimulation (in words, group classification) [1]: substantial retention of the effect on adenylate cyclase | Adenylate cyclase (%) relative activity [1]: 85% | Effect on stimulation of DNA synthesis (in words, group classification) [2]: significant reduction in the stimulation of DNA synthesis | DNA synthesis (%) relative activity [2]: 22%

B10: E4R: hPTH variant Glu(4) -> Arg(4), lengthened N-terminally by one proline (protein, UniProt P01270 32-115, looked up, variant E4R)
Parathyroid hormone: B1 Parathyroid hormone with E4R, N29Q
modifications: Parathyroid hormone N-terminal proline extension
notes: hPTH variant Glu(4) -> Arg(4), lengthened N-terminally by one proline
Effect on adenylate cyclase stimulation (in words, group classification) [1]: significant reduction in adenylate cyclase stimulation | Adenylate cyclase (%) relative activity [1]: 47% | Effect on stimulation of DNA synthesis (in words, group classification) [2]: increase in DNA synthesis | DNA synthesis (%) relative activity [2]: 88%

B11: E4R, R20E: hPTH variant Glu(4) Arg(20) -> Arg(4), Glu(20), lengthened N-terminally by one proline (protein, UniProt P01270 32-115, looked up, variant E4R R20E)
Parathyroid hormone: B1 Parathyroid hormone with E4R, R20E, N29Q
modifications: Parathyroid hormone N-terminal proline extension
notes: hPTH variant Glu(4) Arg(20) -> Arg(4), Glu(20), lengthened N-terminally by one proline
Effect on adenylate cyclase stimulation (in words, group classification) [1]: significant reduction in adenylate cyclase stimulation | Adenylate cyclase (%) relative activity [1]: 20% | Effect on stimulation of DNA synthesis (in words, group classification) [2]: increase in DNA synthesis | DNA synthesis (%) relative activity [2]: 58%

B12: L11K: hPTH variant Leu(11) -> Lys(11), lengthened N-terminally by one proline (protein, UniProt P01270 32-115, looked up, variant L11K)
Parathyroid hormone: B1 Parathyroid hormone with L11K, N29Q
modifications: Parathyroid hormone N-terminal proline extension
notes: hPTH variant Leu(11) -> Lys(11), lengthened N-terminally by one proline
Effect on adenylate cyclase stimulation (in words, group classification) [1]: maintain the stimulation of adenylate cyclase | Adenylate cyclase (%) relative activity [1]: 89% | Effect on stimulation of DNA synthesis (in words, group classification) [2]: reduce that of DNA synthesis | DNA synthesis (%) relative activity [2]: 21%
